Molecular target: T1, G-protein Estrogen Receptor 1 (GPER1) (human (endogenous in SKBR3), UniProt Q99527 1-375)
T1 construct: Endogenous protein precipitated and detected with mouse monoclonal anti-human GPER1 (clone 2F2); also called GPR30; source: endogenous, SKBR3 cells (fixed cells; whole-cell extract)
Assay: proximity ligation; Duolink In Situ, bright field; fixed SKBR3 cells, endogenous proteins; rabbit polyclonal anti-ERα36 and mouse monoclonal anti-GPER1; cells treated with E2 (10^-7 M) and/or LPS
Details: partners not purified

T1 sequence (Q99527 whole entry): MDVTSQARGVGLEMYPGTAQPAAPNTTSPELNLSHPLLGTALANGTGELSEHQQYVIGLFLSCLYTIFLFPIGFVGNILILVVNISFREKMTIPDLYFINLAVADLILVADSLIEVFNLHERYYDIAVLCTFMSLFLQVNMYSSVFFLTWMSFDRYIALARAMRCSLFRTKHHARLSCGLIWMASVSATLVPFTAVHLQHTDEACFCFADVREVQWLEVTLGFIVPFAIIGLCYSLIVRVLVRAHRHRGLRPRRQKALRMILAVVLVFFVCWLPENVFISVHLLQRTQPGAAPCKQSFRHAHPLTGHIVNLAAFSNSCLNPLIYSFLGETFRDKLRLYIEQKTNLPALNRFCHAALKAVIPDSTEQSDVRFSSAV

B1: estrogen receptor alpha 36 (ERα36) (receptor, human (endogenous in SKBR3), UniProt P03372-4 1-310, looked up)
chain: MAMESAKETRYCAVCNDYASGYHYGVWSCEGCKAFFKRSIQGHNDYMCPATNQCTIDKNRRKSCQACRLRKCYEVGMMKGGIRKDRRGGRMLKHKRQRDDGEGRGEVGSAGDMRAANLWPSPLMIKRSKKNSLALSLTADQMVSALLDAEPPILYSEYDPTRPFSEASMMGLLTNLADRELVHMINWAKRVPGFVDLTLHDQVHLLECAWLEILMIGLVWRSMEHPGKLLFAPNLLLDRNQGKCVEGMVEIFDMLLATSSRFRMMNLQGEEFVCLKSIILLNSGISHVEAKKRILNLHPKIFGNKWFPRV
notes: called estrogen receptor isoform 4 in the NCBI database; Endogenous protein detected with a rabbit polyclonal anti-ERα36 antibody; also called ERa36; estrogen receptor isoform 4; source: endogenous, SKBR3 cells (fixed cells; whole-cell extract)
**Q.** For B1, which “fold increase of interacting pairs (PLA dots) with LPS” value is on record?
**A.** ~5 fold
